# In patent publication EP4737482A1 (Atheon Bio, Inc., dated 2026):
# Where a chain is given by its changes, count along the chain named.
# T1: human MYCT1 (hMYCT1) (human, UniProt Q8N699 1-235, limits assumed)
# T1 construct: also called MYC Target 1
# T1 sequence: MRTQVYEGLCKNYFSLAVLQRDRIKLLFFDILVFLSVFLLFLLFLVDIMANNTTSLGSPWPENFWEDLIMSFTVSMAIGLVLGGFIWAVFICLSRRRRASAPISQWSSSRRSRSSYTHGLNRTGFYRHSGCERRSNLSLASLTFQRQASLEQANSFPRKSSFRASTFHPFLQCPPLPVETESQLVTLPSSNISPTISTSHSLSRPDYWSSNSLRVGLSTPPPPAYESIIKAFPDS
# B1: 2B4-z8-p7-uIgG1K (antibody, V domains shown)
# VH: QVQLVQSGAEVKKPGASVKVSCKASGYTFTDYNMHWVRQAPGQGLEWIGYINPNSGGSSYNRKFKGRVTMTTDTSTSTAYMELRSLRSDDTAVYYCATRFDVWGQGTTVTVSS
# VL: DVVMTQSPLSLPVTLGQPASISCKSSQSLLFSDAKTYLNWLQQRPGQSPRRLIYLVSKLDSGVPDRFSGSGSGTDFTLKISRVEAEDVGVYYCWQGTHFPQTFGGGTKVEIK
# B2: 2B4-z2-p7-uIgG1K (antibody, V domains shown)
# VH: B1 VH with I48M
# VL: B1 VL
# B3: 2B4 parent antibody (antibody, V domains shown)
# VH: EVQLQQSGPELVKPGASVKMSCKASGYTFTDYNMHWVRQSHGKGLEWIGYINPNNGGSSYNRKFKGKATLTVNKSSRSASMELRSLTSEDSAVYYCATRFDVWGTGTTVTVSS
# VL: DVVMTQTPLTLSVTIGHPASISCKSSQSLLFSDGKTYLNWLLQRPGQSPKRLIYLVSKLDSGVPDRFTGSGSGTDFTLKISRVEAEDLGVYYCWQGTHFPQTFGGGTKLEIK
# notes: Mouse parental variable domains; also called parent antibody (2B4); 2B4 clone
# B4: 11B6 parent antibody (antibody, V domains shown)
# VH: EVQLVESGGGLVKPGGSLKLSCAASGFTFSDFGIHWVRQAPEKGLEWVGYISSGSRTIHYADTVKGRFTISRDNAKNTLFLQMTNLRSEDTAIYYCARRDWDPEWLAYWGQGTLVTISA
# VL: DVVMTQAPLSLPVSLGDQASISCRSSLSLVHSNGHTYLHWYLQKPGQSPKLLIYKVSNRFSGVPDRFSGSGSGTDFTLKIRRVEAEDLGVYFCSQSTHVPFTFGSGTKLEIK
# notes: Mouse parental variable domains; also called parent antibody (11B6); 11B6 clone
# B5: 11B6-z13-uIgG1K (antibody, V domains shown)
# VH: B4 VH with K19R, E42G, T84N, N85S, S88A, I117V, A119S
# VL: B4 VL with A7S, S14T, L15P, D17E, Q18P, L88V, S105Q
# B6: 2B4-z2-uIgG1K (antibody, V domains shown)
# VH: B1 VH with I48M, S55N
# VL: B1 VL with A34G
# B7: 2B4-z15-uIgG1K (antibody, V domains shown)
# VH: B1 VH with V20M, S55N, M70L, T72V, T74K, S77R
# VL: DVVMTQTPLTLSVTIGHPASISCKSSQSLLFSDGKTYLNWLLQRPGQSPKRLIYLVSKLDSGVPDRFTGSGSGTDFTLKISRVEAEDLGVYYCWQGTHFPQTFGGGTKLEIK
# B8: 2B4-z3-uIgG1K (antibody, V domains shown)
# VH: B1 VH with I48M, S55N, M70L
# VL: B1 VL with A34G
# B9: 2B4-z10-uIgG1K (antibody, V domains shown)
# VH: B1 VH with I48M, S55N, T72V, T74K, S77R
# VL: B1 VL with A34G
# B10: 2B4-z4-uIgG1K (antibody, V domains shown)
# VH: B1 VH with I48M, S55N, T72V
# VL: B1 VL with A34G
# B11: 2B4-z6-uIgG1K (antibody, V domains shown)
# VH: B1 VH with I48M, S55N, S77R
# VL: B1 VL with A34G
# B12: 2B4-z12-uIgG1K (antibody, V domains shown)
# VH: B1 VH with V20M, I48M, S55N, M70L, T72V, T74K, S77R
# VL: B1 VL with A34G
# B13: 2B4-z5-uIgG1K (antibody, V domains shown)
# VH: B1 VH with I48M, S55N, T74K
# VL: B1 VL with A34G
# B14: 2B4-z8-uIgG1K (antibody, V domains shown)
# VH: B1 VH with S55N
# VL: B1 VL with A34G
# B15: 2B4-z13-uIgG1K (antibody, V domains shown)
# VH: B1 VH with V20M, S55N, M70L, T72V, T74K, S77R
# VL: B1 VL with A34G
# B16: 2B4-z7-uIgG1K (antibody, V domains shown)
# VH: B1 VH with V20M, I48M, S55N
# VL: B1 VL with A34G
# B17: 2B4-z11-uIgG1K (antibody, V domains shown)
# VH: B1 VH with I48M, S55N, M70L, T72V, T74K, S77R
# VL: B1 VL with A34G
# B18: 2B4-z14-uIgG1K (antibody, V domains shown)
# VH: B3 VH
# VL: B1 VL with A34G
# B19: 2B4-p6-uIgG1K (antibody, V domains shown)
# VH: B3 VH
# VL: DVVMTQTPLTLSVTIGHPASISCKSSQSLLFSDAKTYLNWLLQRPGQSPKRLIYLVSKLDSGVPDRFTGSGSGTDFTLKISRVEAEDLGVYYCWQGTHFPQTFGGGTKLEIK
# B20: 2B4-p1-uIgG1K (antibody, V domains shown)
# VH: B3 VH with N55Q
# VL: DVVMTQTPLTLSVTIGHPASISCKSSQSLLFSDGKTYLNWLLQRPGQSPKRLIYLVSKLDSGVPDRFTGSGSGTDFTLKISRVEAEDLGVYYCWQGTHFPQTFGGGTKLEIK
# B21: 2B4-p3-uIgG1K (antibody, V domains shown)
# VH: B3 VH with G56A
# VL: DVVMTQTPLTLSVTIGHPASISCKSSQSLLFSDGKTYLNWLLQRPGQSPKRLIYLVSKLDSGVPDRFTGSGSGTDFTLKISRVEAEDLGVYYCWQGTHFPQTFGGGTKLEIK
# B22: 2B4-p4-uIgG1K (antibody, V domains shown)
# VH: B3 VH
# VL: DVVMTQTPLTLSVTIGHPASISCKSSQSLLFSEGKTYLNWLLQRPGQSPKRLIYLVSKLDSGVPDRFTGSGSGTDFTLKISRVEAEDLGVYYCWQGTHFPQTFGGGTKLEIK
# B23: 2B4-p2-uIgG1K (antibody, V domains shown)
# VH: B3 VH with N55S
# VL: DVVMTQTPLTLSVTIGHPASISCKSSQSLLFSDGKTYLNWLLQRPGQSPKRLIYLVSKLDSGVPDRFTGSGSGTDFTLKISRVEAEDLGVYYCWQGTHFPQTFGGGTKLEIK
# B24: 11B6-z10-p3-uIgG1K (antibody, V domains shown)
# VH: B4 VH with K19R, E42G, T78S, F80Y, T84N, N85S, S88A, I93V, I117V, A119S
# VL: B4 VL with A7S, S14T, L15P, D17E, Q18P, G34A, K50Q, R81S, L88V, S105Q
# B25: 11B6-z12-p3-uIgG1K (antibody, V domains shown)
# VH: B4 VH with K19R, E42G, T78S, F80Y, T84N, N85S, S88A, I117V, A119S
# VL: B4 VL with A7S, S14T, L15P, D17E, Q18P, G34A, L88V, S105Q
# B26: 11B6-z16-p3-uIgG1K (antibody, V domains shown)
# VH: B4 VH with K19R, E42G, T78S, F80Y, T84N, N85S, S88A, I93V, I117V, A119S
# VL: B4 VL with V2I, A7S, S14T, L15P, D17E, Q18P, G34A, R81S, L88V, S105Q
# notes: also called hzATN001; ATN001
# Molecular target: T1, human MYCT1 (hMYCT1)
# Assay: SPR full kinetics (Biacore 8K), antibody captured via anti-human Fc IgG, MYCT1 as analyte, steady-state affinity model
row,Kd,Binder
1,586 nM,B1
2,484 nM,B2
3,281 nM,B3

# Molecular target: T1, human MYCT1 (hMYCT1)
# Assay: SPR koff ranking, 1:1 binding model
row,koff,Binder
1,0.00456 s⁻¹,B4

# Molecular target: T1, human MYCT1 (hMYCT1)
# Assay: SPR koff ranking, single curve, antibody captured via anti-human Fc IgG, 10 nM MYCT1 as analyte, 1:1 binding model
row,koff,Binder
1,0.00496 s⁻¹,B4
2,0.00838 s⁻¹,B5

# Molecular target: T1, human MYCT1 (hMYCT1)
# Assay: SPR (Biacore 8K), antibody captured via anti-human Fc IgG, MYCT1 as analyte, steady-state affinity model
row,Kd,Binder
1,368 nM,B6
2,617 nM,B7
3,332 nM,B8
4,456 nM,B9
5,354 nM,B10
6,447 nM,B11
7,428 nM,B12
8,351 nM,B13
9,321 nM,B14
10,443 nM,B15
11,382 nM,B16
12,449 nM,B17
13,181 nM,B3
14,203 nM,B18

# Molecular target: T1, human MYCT1 (hMYCT1)
# Assay: as above
# Remark: another data set of the same source
row,Kd,Binder
1,273 nM,B3
2,288 nM,B19
3,264 nM,B20
4,270 nM,B21
5,> 500 nM,B22
6,224 nM,B23

# Molecular target: T1, human MYCT1 (hMYCT1)
# Assay: SPR full kinetics, multicycle, antibody captured via anti-human Fc IgG, MYCT1 0.625-10 nM as analyte, 1:1 binding model
Kd,koff,kon,Binder
1.2 nM,0.00411 s⁻¹,3.44e+06 M⁻¹ s⁻¹,B4
3.34 nM,0.0122 s⁻¹,3.65e+06 M⁻¹ s⁻¹,B24
2.35 nM,0.00786 s⁻¹,3.35e+06 M⁻¹ s⁻¹,B25
2.53 nM,0.00841 s⁻¹,3.32e+06 M⁻¹ s⁻¹,B26
